Test results published in the Human Domainome abundance scans (Beltran et al. 2025).
± gives the uncertainty stated by the source.

B1: Receptor-interacting serine/threonine-protein kinase 2, residues 438 to 518; numbered along this chain, O43353 (parent)
chain: QWIQSKREDIVNQMTEACLNQSLDALLSRDLIMKEDYELVSTKPTRTSKVRQLLDTTDIQGEEFAKVIVQKLKDNKQMGLQ

Variants of: B1
Experiment: abundance fitness (aPCA) (normalised: wild type 0, dead -1); higher = more abundant; growth selection in yeast, the domain comes from the species named
Details: Homo sapiens

**Q.** Which abundance fitness does the source give for QWIQSKREDIVNQMTEALLNQSLDALLSRDLIMKEDYELVSTKPTRTSKVRQLLDTTDIQGEEFAKVIVQKLKDNKQMGLQ here?
**A.** Its abundance fitness is -0.519 ± 0.072.

**Q.** With QWIQSKREDIVNQMTEACLNQSLDALLSRDLIMKEDYELVSTKPTRTSKVRQLLDTTDIQGEEFAKVIVQKLKDNSQMGLQ as the variant, how does the abundance fitness read?
**A.** The abundance fitness was 0.032 ± 0.071.

**Q.** With QWIQSKREDIMNQMTEACLNQSLDALLSRDLIMKEDYELVSTKPTRTSKVRQLLDTTDIQGEEFAKVIVQKLKDNKQMGLQ as the variant, how does the abundance fitness read?
**A.** The abundance fitness was -0.099 ± 0.15.

**Q.** For QWIQSKREDIINQMTEACLNQSLDALLSRDLIMKEDYELVSTKPTRTSKVRQLLDTTDIQGEEFAKVIVQKLKDNKQMGLQ, which abundance fitness is on record?
**A.** The abundance fitness was 0.091 ± 0.12.

**Q.** Which abundance fitness does the source give for QWIQSKREDIVNQMTEACLNQSLDALLSRDLIMKEDYELVSTKPTRTSKVRQLLDTTDIQCEEFAKVIVQKLKDNKQMGLQ here?
**A.** The abundance fitness was -0.083 ± 0.078.

**Q.** For QWIQSKREDIVNQMTEACLNQSLDALLSRDLIMKEDYELVSTKPTRTSKVRQLLDTTDIQQEEFAKVIVQKLKDNKQMGLQ, which abundance fitness is on record?
**A.** Its abundance fitness is -0.243 ± 0.094.

**Q.** For QWIQSKREDIVNQMTEACLNQSLDALLSRDLIMKESYELVSTKPTRTSKVRQLLDTTDIQGEEFAKVIVQKLKDNKQMGLQ, which abundance fitness is on record?
**A.** The abundance fitness was -0.551 ± 0.077.

**Q.** For QWIQSKREDIVNQMTEACLNQSLDALLSRDLIMKEPYELVSTKPTRTSKVRQLLDTTDIQGEEFAKVIVQKLKDNKQMGLQ, which abundance fitness is on record?
**A.** The abundance fitness was -0.459 ± 0.065.

**Q.** Which abundance fitness does the source give for QWIQSKREDIVNQMTEACLNQSLDALLSRDLIMKEDYELVSTKPTRTSKVRQLLDTTDIQGEEFAKVIVQKLKCNKQMGLQ here?
**A.** Its abundance fitness is -0.246 ± 0.13.

**Q.** For QWIQSKREDIVNQMTEACLNQSLDALLSRDLIMKEDYELVSTKPTRTSKVRQLLDTTDIQGEEFAKVIVQKLKYNKQMGLQ, which abundance fitness is on record?
**A.** Its abundance fitness is -0.173 ± 0.26.

**Q.** With QWIQSKREDIVNQMTEACLNQSLDELLSRDLIMKEDYELVSTKPTRTSKVRQLLDTTDIQGEEFAKVIVQKLKDNKQMGLQ as the variant, how does the abundance fitness read?
**A.** Its abundance fitness is 0.183 ± 0.072.

**Q.** With QWIQSKREDIVNQMTEACLNQSLDALLSRDLIMKEDYELVSTKPTRTSKVRQLLDTTDIQGEEFAKIIVQKLKDNKQMGLQ as the variant, how does the abundance fitness read?
**A.** Its abundance fitness is 0.164 ± 0.14.

**Q.** Which abundance fitness does the source give for QWIQSKREDIVNQMTEACLNQSWDALLSRDLIMKEDYELVSTKPTRTSKVRQLLDTTDIQGEEFAKVIVQKLKDNKQMGLQ here?
**A.** The abundance fitness was -0.911 ± 0.3.

**Q.** For QWIQSKREDIVNQMTEACLNQSLDALLSRDLIMKEDYWLVSTKPTRTSKVRQLLDTTDIQGEEFAKVIVQKLKDNKQMGLQ, which abundance fitness is on record?
**A.** The abundance fitness was -0.12 ± 0.095.

**Q.** Which abundance fitness does the source give for QWIQSKREDIVNQMTEACLNQSLDALLSRDLCMKEDYELVSTKPTRTSKVRQLLDTTDIQGEEFAKVIVQKLKDNKQMGLQ here?
**A.** Its abundance fitness is -0.679 ± 0.14.

**Q.** For QWIQSKREDIVNQMTEACLNQSLDALLSRDLIMKEDYELVSTKPTRTSKVRQLLDTTDIQGEEDAKVIVQKLKDNKQMGLQ, which abundance fitness is on record?
**A.** Its abundance fitness is -0.17 ± 0.18.

**Q.** With QWIQSKREDIVNQMVEACLNQSLDALLSRDLIMKEDYELVSTKPTRTSKVRQLLDTTDIQGEEFAKVIVQKLKDNKQMGLQ as the variant, how does the abundance fitness read?
**A.** Its abundance fitness is -0.777 ± 0.11.

**Q.** For QWIQSKREDIVNQMIEACLNQSLDALLSRDLIMKEDYELVSTKPTRTSKVRQLLDTTDIQGEEFAKVIVQKLKDNKQMGLQ, which abundance fitness is on record?
**A.** The abundance fitness was -1.12 ± 0.34.

**Q.** Which abundance fitness does the source give for QWIQSKREDIVNQMTEACLNQSLDALLSRDLIMKEDYELHSTKPTRTSKVRQLLDTTDIQGEEFAKVIVQKLKDNKQMGLQ here?
**A.** The abundance fitness was 0.095 ± 0.37.

**Q.** Which abundance fitness does the source give for QWIQSKREDIVNQMTEACLNQSLDALLSRDLIMKEDYELVSTKPTRTSKVRQLLDTEDIQGEEFAKVIVQKLKDNKQMGLQ here?
**A.** The abundance fitness was -0.082 ± 0.14.

**Q.** With QWIQSKREDIVNAMTEACLNQSLDALLSRDLIMKEDYELVSTKPTRTSKVRQLLDTTDIQGEEFAKVIVQKLKDNKQMGLQ as the variant, how does the abundance fitness read?
**A.** Its abundance fitness is 0.032 ± 0.19.

**Q.** With QWIQSKREDIVNQMTEACLNQSLDALLSRDLIMKEDYELVSTKPTRTSKVRQLLDTTDIFGEEFAKVIVQKLKDNKQMGLQ as the variant, how does the abundance fitness read?
**A.** The abundance fitness was -0.378 ± 0.16.

**Q.** For QWIQSKREDIVNQMTEACLNQSLDALLSRDLIMKEDYELVSTKPTRTSKVRQLLDTTDIHGEEFAKVIVQKLKDNKQMGLQ, which abundance fitness is on record?
**A.** The abundance fitness was -0.199 ± 0.089.

**Q.** Which abundance fitness does the source give for QWIQSKREDIVNQMTEACLNQSLDALLSRDLIMKEDYELVSTKPTRTSKVRQLLDTTWIQGEEFAKVIVQKLKDNKQMGLQ here?
**A.** The abundance fitness was -0.081 ± 0.08.

**Q.** With QWMQSKREDIVNQMTEACLNQSLDALLSRDLIMKEDYELVSTKPTRTSKVRQLLDTTDIQGEEFAKVIVQKLKDNKQMGLQ as the variant, how does the abundance fitness read?
**A.** The abundance fitness was -0.292 ± 0.17.

**Q.** Which abundance fitness does the source give for QWIQSKREDIVNQMTEACLNQSLDALLSRDLIMKEDYEAVSTKPTRTSKVRQLLDTTDIQGEEFAKVIVQKLKDNKQMGLQ here?
**A.** Its abundance fitness is 0.092 ± 0.08.

**Q.** Which abundance fitness does the source give for QWIQSKREDIVNQMTEACLNQSLDALLSRDLIMKEDYELVSTKPTRTSKVRQLWDTTDIQGEEFAKVIVQKLKDNKQMGLQ here?
**A.** The abundance fitness was -1.08 ± 0.16.

**Q.** With QWIQSKREDIVNQMTEACLNQALDALLSRDLIMKEDYELVSTKPTRTSKVRQLLDTTDIQGEEFAKVIVQKLKDNKQMGLQ as the variant, how does the abundance fitness read?
**A.** Its abundance fitness is 0.066 ± 0.051.

**Q.** Which abundance fitness does the source give for QWIQSKREDIVNQMTEACLNQSLDALLSRDLIMKEDYELVSTKPTGTSKVRQLLDTTDIQGEEFAKVIVQKLKDNKQMGLQ here?
**A.** The abundance fitness was -0.596 ± 0.054.

**Q.** For QWIQSKREDIVNQMTEACLNQSLDALLSRDLIMKEDYELVSTKPTRTSKVWQLLDTTDIQGEEFAKVIVQKLKDNKQMGLQ, which abundance fitness is on record?
**A.** The abundance fitness was -0.802 ± 0.17.

**Q.** Which abundance fitness does the source give for QWIQSKREDIVNQMTENCLNQSLDALLSRDLIMKEDYELVSTKPTRTSKVRQLLDTTDIQGEEFAKVIVQKLKDNKQMGLQ here?
**A.** The abundance fitness was -0.166 ± 0.17.

**Q.** For QWIQSKREDIVNQMTEACLRQSLDALLSRDLIMKEDYELVSTKPTRTSKVRQLLDTTDIQGEEFAKVIVQKLKDNKQMGLQ, which abundance fitness is on record?
**A.** Its abundance fitness is -0.106 ± 0.098.

**Q.** With QWIQSKREDIVNQMTEACLNQSLDALLSRDLIMKEDYELVSTKPTRTSKVRQLLDTTDIQGEEFAKVCVQKLKDNKQMGLQ as the variant, how does the abundance fitness read?
**A.** The abundance fitness was -0.866 ± 0.19.

**Q.** Which abundance fitness does the source give for QWIQSKREDIVNQMTEACLNQSLDALLSPDLIMKEDYELVSTKPTRTSKVRQLLDTTDIQGEEFAKVIVQKLKDNKQMGLQ here?
**A.** Its abundance fitness is -0.433 ± 0.079.
